Article PMC8465315, “Molecular Umbrella as a Nanocarrier for Antifungals” (Molecules, 2021)

Assays:
pig liver esterase = assay: HPLC-MS analysis of conjugate cleavage, model system with pig liver esterase; format: in vitro ADME; conditions: pig liver esterase 5 mg mL^−1; conjugate 150 µM; 30 °C; 0, 30, 120 min
Protocol: (§1) Conjugates 24a–d, containing the TML system, were tested for susceptibility to enzymatic cleavage in the model system with pig liver esterase and in cell-free extract prepared from C. albicans cells. Conjugate 35 containing the o-dithiobenzylcarbamoyl linker was tested in the model system with glutathione and in C. albicans cell-free extract.
(§2) Analysis of cleavage of the conjugates was performed in two experimental systems: (A) model system, in the presence of pig liver esterase or glutathione, reduced; (B) in C. albicans cell-free extract.
Mixtures containing a given conjugate at the initial concentration of 150 µM and pig liver esterase, 5 mg mL^−1 or 10 mM glutathione, reduced, in a total volume of 200 μL were incubated at 30 °C. Samples of 50 μL were collected at zero time, after 30 min, and after 120 min and subjected to HPLC-MS analysis.
(§3) The HPLC-MS system consisted of a liquid chromatograph, a degasser, a binary pomp, an auto-sampler, and a column oven, which was combined with an MS detector with an electrospray source (AJS ESI) and quadrupole analyzer (1260 Infinity II and 6470 Triple Quad LC/MS, Agilent Technologies, Waldbronn, Germany). The ChemStation software was used to control the LC-MS system and for data processing.
(§4) Chromatographic separations were performed on an Eclipse XDB-C18 column (150 mm × 4.6 mm, 5 μm). For the separation, a gradient of mobile phase A (H2O + 0.01% HCOOH) and mobile phase B (100% methanol) was used. The gradient profile was set as follows: 0 min—95% effluent A, 8 min—70% effluent A, 11 min—50% effluent A, 12 min—95% effluent A, 17 min—95% effluent A. The flow rate was 1 mL min^−1, the column temperature was 25 °C, and the injection volume was 20 μL.
(§5) The electrospray source operated in a negative mode. The data were collected in a MS scanning mode (MS2 SCAN) with the range 150–700 (m/z).

[1] = test system: C. albicans cell-free extract; format: in vitro ADME, Candida albicans; conditions: conjugate 150 µM, 30 °C, 0, 30, 120 min
Protocol: as §1
C. albicans cells were harvested from the culture in YPD medium in the logarithmic phase of growth and washed with PBS, pH 7.4. Then, cells were suspended in a minimal amount of PBS to an optical density OD660 ≈ 1.5. A sample of 1.5 mL of the cell suspension was put into the Lysing Matrix D, 2 mL tubes containing 1.4 mm ceramic spheres (MP Biomedicals). The tubes were vortexed 5 times for 2 min intervals, with 2 min breaks for cooling in the ice/water bath. Finally, the mixtures were centrifuged (10,000× g, 4 °C, 20 min), and the supernatant was pushed through the syringe filter, 0.22 μm pore size, to remove unbroken cells. The thus-obtained cell-free extract was kept at 4 °C and used no later than 5 h after preparation.
as §2
A given conjugate was dissolved in 4 mL of C. albicans cell-free extract to the initial concentration of 150 µM. Mixtures were incubated at 30 °C. Samples of 1 mL were collected at zero time, after 30 min, and after 120 min. The collected samples were immediately de-proteinized by centrifugation (4 °C, 5000× g, 10 min) in Amicon® Ultra-4 Centrifugal Filter Units, 3 kDa cutoff limit. Samples of 50 μL were collected from the filtrates and subjected to HPLC-MS analysis.
as §3, §4, §5

Candida spp. = assay: Antifungal in vitro activity, summary statements over the Candida strains tested; format: cell-based; conditions: RPMI-1640 medium
Protocol: The antifungal in vitro activity of conjugates 24a–d and 35 was determined by the serial two-fold dilution method, using the 96-well microtiter plates, in two growth media, RPMI-1640 and YNB-AS, against seven yeast species from the Candida genus. The MIC50 and MIC90 values, i.e., concentrations at which cell growth was inhibited in 50% and 90%, respectively, were measured and compared to those of the intact cispentacin. The concentration values presented in Table 1 and Table 2 are expressed in mM units to allow the comparison of the compounds’ effectiveness at the molecular level. For data expressed in μg mL^−1 units, such comparison is not possible, since the molecular masses of conjugates (≈1755–2114 D range) are 14–16-fold higher than that of cispentacin (128.3 D).
Susceptibility testing was performed in two growth media: (a) RPMI-1640 w/o sodium bicarbonate, with L-glutamine + 2% glucose + 3.45% MOPS, pH adjusted to 7.0; (b) YNB-AS—Yeast Nitrogen Base w/o amino acids (contains ammonium sulfate 5 g L^−1) + 2% glucose. The in vitro growth inhibitory activity of antifungals was quantified by determination of MIC50 and MIC90 values by the serial two-fold dilution method, using the 96-well microtiter plates. Serial dilutions of cispentacin and its conjugates were prepared in the 4–0.015 mM range.
Conditions of the RPMI-1640-based assay were the same as outlined in the CLSI recommendations except for the end-point readout that was done by spectrophotometric determination of cell density at 660 nm. Turbidity in individual wells was measured with a microplate reader (Victor^3; Perkin Elmer). The 96-well microtiter plates were also used for the determination of in vitro growth inhibitory activity in YNB-AS medium. Individual wells were inoculated with 5 × 10^3 Candida cells mL^−1 from the overnight culture in YPD medium. The plates were incubated at 37 °C for 24 h, and then, turbidity was measured with a microplate reader at 660 nm, as described above for the RPMI-1640-based assay.
Values of MIC50 and MIC90 were read from the graphs of A660 vs. drug concentration and corresponded to the interpolated values of drug concentration at which A660 was 50% or 10% of that measured for the drug-free control.

Row | SMILES | cleavage / release of cispentacin (HPLC-MS) (pig liver esterase) | cleavage / release of cispentacin or its derivative (HPLC-MS) [1] | antifungal activity (Candida spp.)
1 | Cc1cc(C)c(C(C)(C)CC(=O)N[C@H]2CCC[C@H]2C(=O)O)c(OC(=O)CCC(=O)N(CCCCNC(=O)CC[C@@H](C)[C@H]2CC[C@H]3[C@@H]4CC[C@@H]5C[C@H](OS(=O)(=O)O)CC[C@]5(C)[C@H]4C[C@H](OS(=O)(=O)O)[C@]23C)CCCNC(=O)CC[C@@H](C)[C@H]2CC[C@H]3[C@@H]4CC[C@@H]5C[C@H](OS(=O)(=O)O)CC[C@]5(C)[C@H]4C[C@H](OS(=O)(=O)O)[C@]23C)c1 [24a] | resistant to enzymatic cleavage | Neither cispentacin nor the m/z 145.1/145.2 compound was found | devoid of antifungal activity
2 | Cc1cc(C)c(C(C)(C)CC(=O)N[C@H]2CCC[C@H]2C(=O)O)c(OC(=O)CCC(=O)N(CCCCNC(=O)CC[C@@H](C)[C@H]2CC[C@H]3[C@@H]4[C@H](OS(=O)(=O)O)C[C@@H]5C[C@H](OS(=O)(=O)O)CC[C@]5(C)[C@H]4C[C@H](OS(=O)(=O)O)[C@]23C)CCCNC(=O)CC[C@@H](C)[C@H]2CC[C@H]3[C@@H]4[C@H](OS(=O)(=O)O)C[C@@H]5C[C@H](OS(=O)(=O)O)CC[C@]5(C)[C@H]4C[C@H](OS(=O)(=O)O)[C@]23C)c1 [24b] | resistant to enzymatic cleavage | Neither cispentacin nor the m/z 145.1/145.2 compound was found | devoid of antifungal activity
3 | Cc1cc(C)c(C(C)(C)CC(=O)N[C@H]2CCC[C@H]2C(=O)O)c(OC(=O)CCCCCC(=O)N(CCCCNC(=O)CC[C@@H](C)[C@H]2CC[C@H]3[C@@H]4[C@H](OS(=O)(=O)O)C[C@@H]5C[C@H](OS(=O)(=O)O)CC[C@]5(C)[C@H]4C[C@H](OS(=O)(=O)O)[C@]23C)CCCNC(=O)CC[C@@H](C)[C@H]2CC[C@H]3[C@@H]4[C@H](OS(=O)(=O)O)C[C@@H]5C[C@H](OS(=O)(=O)O)CC[C@]5(C)[C@H]4C[C@H](OS(=O)(=O)O)[C@]23C)c1 [24c] | Presence of the released cispentacin was confirmed | the product of a possible cleavage, with RT similar to that of cispentacin but with 17 D higher MW, was formed | –
